Data reported in patent publication US7670820B2, “Chitinase and uses thereof” (Academia Sinica, priority 2007, dated 2010).
Several values for one entry are separate records, joined by “and”; a condition that tells them apart may be missing. Equal values may be shown once. Read-outs that look alike come from different tables or passages of the source.

Legend:
CpCHI = type: biochemical, Carica papaya
Description: (§1) Chitinase activity was generally measured using glycol chitin as a substrate. All enzymes other than CpCHI, were purchased from Promega (Madison, Wis.). Chemicals were purchased from Merck (Darmstadt, Germany). An enzyme solution (10 μL) was added to 100 μL of 1% (w/v) glycolchitin dissolved in 90 μL of a sodium acetate buffer (100 mM, pH 5.0), and was incubated at 30° C. for 3 hours. The reducing end group produced was measured calorimetrically at 420 nm with 200 μL of a potassium ferricyanide (K3Fe(CN)6) reagent according to the method descried in Boller et al., 1983, Planta. 157, 22-31. Reduced sugar levels were determined relative to N-acetyl-β-D-glucosamine standards of 0-150 μg mL^−1. One unit of chitinase activity is defined as the amount of enzyme producing 1 μmol reducing sugar per minute at 30° C. Substrate and enzyme blanks were also prepared in which the enzyme or substrate was incubated with a buffer. All measured values of absorbency were normalized against appropriate blank absorbencies. In this example, collodial chitin and chitosan were also used as substrate for subtract specificity analysis.
To analyze the effect of metals and other factors on chitinase activity, the enzyme was preincubated with a 10 mM of different metals and inhibitors. After 30 minutes, the remaining chitinase activity was measured in the manner described above.

Alternaria brassicicola = test: Inhibition of spore germination; type: cell-based; conditions: 24° C. for 24 hours
Description: Assays were also carried out to examine effects of CpCHI on Alternaria brassicicola, a fungus isolated from cabbages. The fungus was cultured in potato dextrose agar (DIFCO) for 2 weeks. After sporulation, the spores of the fungus were suspended in water to a concentration of 10^4 spores mL^−1. A fungal spore stock (approximately 500 spores) was cultured at 24° C. for 24 hours in the following solutions: (A) H2O, (B) TE buffer (10 mM Tris-HCl pH 7.5, 1 mM EDTA), (C) 5 μM CpCHI in TE buffer, and (D) 10 μM CpCHI in TE buffer. The inhibition of spore germination was examined under a light microscope at 200× amplification (Li et al., 2003, Plant Cell Physiol. 44, 1162-1167). The percentage of germination was calculated from 10 different observations. All experiments were conducted in triplicates.

E. coli AD494 = test: Antibacterial activity, growth suppression (density at 600 nm); type: cell-based; conditions: E. coli AD494, LB medium
Description: (§2) Experiments were conducted to examine recombinant CpCHI's ability to suppress the growth of E. coli ED2566 or E. coli AD494. Briefly, the E. coli strain was grown at 37° C. in an LB medium with shaking at 225 rpm overnight. Then, the overnight culture was 100× diluted in a fresh LB medium containing 1 μM, 1.5 μM, 2 μM, 2.5 μM, or 3 μM CpCHI. A TE buffer (10 mM Tris-HCl pH7.5, 1 mM EDTA) was used as a control. Changes in density at 600 nm were monitored. The assays were conducts in triplicates and the average were recorded to examine the inhibition of bacterial growth.

E. coli ED2566 = test: as above; type: cell-based; conditions: E. coli ED2566, LB medium
Description: as §2

[1] = Chitinase substrate specificity, chitosan as substrate; type: biochemical; conditions: relative to glycol chitin
Description: as §1

[2] = type: physicochemical
Description: The pH stability of recombinant CpCHI was determined. Briefly, purified recombinant CpCHI was incubated in buffers with pH from 3.0 to 10.0 at 30° C. for 3 hours. The residual activity was then determined at a standard condition (30° C. for 3 hours at pH 6.0). The results were averaged from three independent experiments.
The stability of recombinant CpCHI during long-term storage was examined. […] The enzyme retained more than 60% of its activity for 3 weeks at 30° C. and more than 50% activity for 3 weeks at 37° C. The results were also averaged from three independent experiments.

[3] = Chitinase substrate specificity, collodial chitin as substrate; type: biochemical; conditions: relative to glycol chitin
Description: as §1

[4] = Chitinase activity with glycol chitin as substrate (colorimetric reducing-sugar assay); type: biochemical
Description: as §1
The optimal pH of the chitiolytic activity of CpCHI was determined by incubating the purified recombinant enzyme (5 μg) at different pH (3-10) at 30° C. for 3 hours using glycol chitin as the substrate. An acetate buffer (100 mM) was used for pH 3-5, a phosphate buffer (100 mM) for pH 6˜7, a Tris-HCl buffer (100 mM) for pH 8, and a glycine-NaOH buffer for pH 9 and 10. The optimal temperature was determined by incubating the purified chitinase (5 μg) at different temperatures (10˜90° C.) at pH 6.0 for 3 hours using glycol chitin as the substrate. The highest activity was calculated as relative activity (RA) 100%.

Sclerotium rolfsii [5] = test: Disease resistance assay on detached leaves; type: in vivo; conditions: for pathogenesis inhibition: day 4 after inoculation
Description: (§3) The effects of recombinant CpCHI on the growth of Phytophthora sp., Sclerotium rolsii, and Rhizoctonia solani were examined using standard methods. Disease resistance assays were carried out using detached leaves of cabbage, bell pepper, and tomato that were inoculated with each of the pathogens. Cabbage (Brassica oleracea), bell pepper (Capsicam annuum), and tomato (Solanum lycopersicum) were obtained from Known-You Seed CO., LTD. An agar plug containing the pathogen was placed on the center of leaves. At day 1 day after inoculation, the detached leaves began to show lesions surrounded by yellow halos. Then, different solutions, including H2O, a TE buffer (10 mM Tris-HCl pH 7.5, 1 mM EDTA), or 5, 10, 15 μM CpCHI in the TE buffer was sprayed onto the leaves. At day 4 after inoculation, the pathogenesis inhibition by 5, 10, or 15 μM CpCHI was about 37%, 83%, and 98%, respectively (Table 3). […] Also, recombinant CpCHI inhibited the growth of these three fungi with as little as 15 μM, and the inhibited activity lasted for 7 days.

[6] = HPLC analysis of chitin hydrolysis by CpCHI; type: biochemical
Description: Chitin hydrolysis was carried out in a phosphate buffer (100 mM, pH 6) at 30° C. with shaking. The concentrations of chitinase and glycol chitin suspension were 750 ng μL^−1 and 100 μg mL^−1, respectively. The reactions were quenched with 10% (v/v) acetic acid. […] The column was connected to an Agilent Technologies 1100 series HPLC system under the control of a Thermo Finnigan LCQ DECA electrospray mass spectrometer. The mass-to-charge ratios (m/z) of the expected oligosaccharides were selected as follows: Glc-NAc (221.9), (GlcNAc)2 (425.5), (GlcNAc)3 (627.6), (GlcNAc)4 (830.8), (GlcNAc)5 (1034.0), (GlcNAc)6 (1237.2), and (GlcNAc)7 (1440.0).

Sclerotium rolfsii [7] = test: Antifungal activity, growth / hypha extension inhibition; type: cell-based
Description: (§4) The antifungal activity of recombinant chitinase protein was assessed by the hypha extension inhibition assay. Sclerotium rolfsii and Phytophthora sp. were provided from Hualien District Agricultural Research and Extension Station. Rhizoctonia solani and Alternaria brassicicola were provided by Dr. Jenn-Wen Hung of the Department of Plant Pathology of National Chung-Hsing University. A disc of each strain of fungus was removed from an actively growing fungal culture, and placed in the center of a fresh potato dextrose agar plate. After incubation at room temperature for 3 to 4 days, the recombinant chitinase or a control buffer (10 mM Tris-HCl pH7.5, 1 mM EDTA) were separately applied into a pool, which was 1 cm from the perimeter. The inhibition of the hypha extension was detected as a crescent-shaped zone of inhibition around the peripheral disc as the fungus grew out from the central disc.
as §3

Phytophthora sp. = test: as above; type: cell-based
Description: as §4, §3

Rhizoctonia solani = test: as above; type: cell-based
Description: as §4, §3

[8] = enzyme preincubated 30 minutes with 10 mM reagent

Molecule: O=C(O)CN(CCN(CC(=O)O)CC(=O)O)CC(=O)O [EDTA]
- Relative activity (%) of CpCHI (CpCHI): 93.33 ± 3.06%
- reduction / inhibition of CpCHI activity (CpCHI): 6.67%

Molecule: O=S(=O)([O-])[O-].[Cu+2] [CuSO4]
- reduction / inhibition of CpCHI activity (CpCHI; 10 mM): 60%
- Relative activity (%) of CpCHI (CpCHI; [8]): 40.00 ± 7.2%

Molecule: O=S(=O)([O-])[O-].[Zn+2] [ZnSO4]
- reduction / inhibition of CpCHI activity (CpCHI; 10 mM): 62.0%
- Relative activity (%) of CpCHI (CpCHI; [8]): 38.00 ± 3.61%

Molecule: [Cl-].[K+] [KCl]
- reduction / inhibition of CpCHI activity (CpCHI; 10 mM): 7.67%
- Relative activity (%) of CpCHI (CpCHI; [8]): 92.33 ± 1.53%

Molecule: [Cl][Mn][Cl] [MnCl2]
- reduction / inhibition of CpCHI activity (CpCHI; 10 mM): 64.7%
- Relative activity (%) of CpCHI (CpCHI; [8]): 35.33 ± 3.06%

Molecule: [Cl][Fe]([Cl])[Cl] [FeCl3]
- reduction / inhibition of CpCHI activity (CpCHI; 10 mM): 29.33%
- Relative activity (%) of CpCHI (CpCHI; [8]): 70.67 ± 3.06%

Molecule: O=[N+]([O-])[O-].[Ag+] [AgNO3]
- reduction / inhibition of CpCHI activity (CpCHI; 10 mM): 16.33%
- Relative activity (%) of CpCHI (CpCHI; [8]): 83.67 ± 2.52%

Molecule: [Cl][Hg][Cl] [HgCl2]
- reduction / inhibition of CpCHI activity (CpCHI; 10 mM): completely
- Relative activity (%) of CpCHI (CpCHI; [8]): 0%

B1: CpCHI: novel class IV chitinase from papaya (Carica papaya) fruit, mature form expressed in E. coli and purified on Ni-NTA (protein, listed as Carica papaya)
chain: QNCGCAPNLCCSRFGFCGQGEAYCGEGCREGPCNKPSPTPGGGSSLAEIVTPDFFNGIINQAAAGCAGKSFCSRGGFLDAANSFPEFGKLGSVDDSKREIAAFFAHVTHETGHFCHIEEINGASHDYCDEGNTQYPCAPGKNYFGRGPIQLTWNYNYGAAGDALRLNLLGSPEMVARDAAVSFKTALWFWMKNVRPVINQGFGATIRAINGAIECNGGNPGTVQARIGYYRDYCAKFGVAPGENLSC
- inhibition of spore germination (Alternaria brassicicola; 5 μM): 50%
- inhibition of spore germination (Alternaria brassicicola; 10 μM): 98%
- IC50 (E. coli AD494): ~2500 nM
- IC50 (E. coli ED2566): ~2500 nM
- Relative activity toward chitosan [1]: 11% and 11.33 ± 2.52%
- activity retained during long-term storage ([2]; 3 weeks at 30° C.): more than 60%
- activity retained during long-term storage ([2]; 3 weeks at 37° C.): more than 50%
- Relative activity toward collodial chitin [3]: 59% and 58.67 ± 5.03%
- broad pH optima ([4]; 30° C., 3 hours, glycol chitin): 5.0-9.0
- optimal pH for the enzyme activity ([4]; 30° C., 3 hours, glycol chitin): 6.0
- optimal temperature for the enzyme activity ([4]; pH 6.0, 3 hours, glycol chitin): 30 °C
- specific activity ([4]; recombinant protein after dialysis, spectrophotometric assay, glycol chitin): 14.8 U mg^−1
- Relative activity toward glycol chitin ([4]; substrate glycol chitin): 100%
- activity maintained at different temperatures ([4]; temperatures between 10-50° C.): at least 80%
- pathogenesis inhibition (Sclerotium rolfsii [5]; 5 μM): about 37%
- pathogenesis inhibition (Sclerotium rolfsii [5]; 10 μM): ~83%
- pathogenesis inhibition (Sclerotium rolfsii [5]; 15 μM): ~98%
- Percentage of the symptom appearing (Sclerotium rolfsii [5]; Cabbage detached leaves, 5 μM sprayed): 55.33 ± 6.11%
- Percentage of the symptom appearing (Sclerotium rolfsii [5]; Cabbage detached leaves, 10 μM sprayed): 14.33 ± 5.13%
- Percentage of the symptom appearing (Sclerotium rolfsii [5]; Cabbage detached leaves, 15 μM sprayed): 1.66 ± 2.88%
- Percentage of the symptom appearing (Sclerotium rolfsii [5]; bell pepper detached leaves, 5 μM sprayed): 66.67 ± 7.34%
- Percentage of the symptom appearing (Sclerotium rolfsii [5]; bell pepper detached leaves, 10 μM sprayed): 23.33 ± 7.64%
- Percentage of the symptom appearing (Sclerotium rolfsii [5]; bell pepper detached leaves, 15 μM sprayed): 3.33 ± 2.77%
- Percentage of the symptom appearing (Sclerotium rolfsii [5]; tomato detached leaves, 5 μM sprayed): 65 ± 15%
- Percentage of the symptom appearing (Sclerotium rolfsii [5]; tomato detached leaves, 10 μM sprayed): 13.33 ± 10.41%
- Percentage of the symptom appearing (Sclerotium rolfsii [5]; tomato detached leaves, 15 μM sprayed): 1.66 ± 1.32%
- hydrolyzed products of glycol chitin ([6]; after 1 hour): (GlcNAc)3
- hydrolyzed products of glycol chitin ([6]; after 2 hours): (GlcNAc)3, (GlcNAc)2, and (GlcNAc)
- hydrolyzed products of glycol chitin ([6]; final products): (GlcNAc)2 and (GlcNAc)
- antifungal activity (Sclerotium rolfsii [7]): great antifungal activity
- concentration that inhibited growth (Sclerotium rolfsii [7]): 15 µM
- duration of the inhibited activity (Sclerotium rolfsii [7]; 15 μM): 7 days
- antifungal activity (Phytophthora sp.): great antifungal activity
- concentration that inhibited growth (Phytophthora sp.): 15 µM
- duration of the inhibited activity (Phytophthora sp.; 15 μM): 7 days
- antifungal activity (Rhizoctonia solani): great antifungal activity
- concentration that inhibited growth (Rhizoctonia solani): 15 µM
- duration of the inhibited activity (Rhizoctonia solani; 15 μM): 7 days
